Data set [1] has as its target T1, recombinant NBS secreted by Aspergillus oryzae NS-NAB2 (three Gly residues before the N terminus) (Curculigo latifolia, UniProt P19667 23-136).
T1 construct: Expressed as an alpha-amylase fusion and cleaved at Lys-Arg by a KEX2-like protease; also called 11 kDa band of recombinant neoculin
T1 sequence: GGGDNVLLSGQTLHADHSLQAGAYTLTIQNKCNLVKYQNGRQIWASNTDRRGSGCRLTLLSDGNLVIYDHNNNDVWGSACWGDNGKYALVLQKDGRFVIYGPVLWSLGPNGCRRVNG
Nature of the data set: phenyl hydrophobic column fractions, SDS-PAGE under reducing/non-reducing conditions and western blotting.

Data set [2] concerns the molecule itself. The description is as above.
For data set [3], the target named is T2, polypeptide NBS (neoculin basic subunit), purified from the fruit of Curculigo latifolia (Curculigo latifolia, UniProt P19667 23-136).
T2 construct: Subunit of native neoculin, without a sugar chain; It has 115 residues: curculin B plus one extra C-terminal Gly; also called 11 kDa subunit
T2 sequence: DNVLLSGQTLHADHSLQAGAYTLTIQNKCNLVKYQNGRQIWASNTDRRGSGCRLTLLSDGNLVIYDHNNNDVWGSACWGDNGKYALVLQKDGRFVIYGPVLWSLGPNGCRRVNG
The data set can be described thus: SDS-PAGE under reducing and non-reducing conditions, CBB staining, native neoculin. How it is done:
2.5 μg of the purified neoculin powder obtained above in (1) to (3) was subjected to SDS-PAGE under reducing conditions or non-reducing conditions at a gel concentration of 15% and subsequently to CBB staining. […] Thus, the individual subunits were designated as neoculin acidic subunit (NAS) and neoculin basic subunit (NBS).

Data on two molecules can be found in US20080305522A1 (MITSUKAN GROUP, published 2008).

B1: recombinant NAS secreted by Aspergillus oryzae NS-NAB2 (three Gly residues before the N terminus) (other)
chain: GGGDSVLLSGQTLYAGHSLTSGSYTLTIQNNCNLVKYQHGRQIWASDTDGQGSQCRLTLRSDGNLIIYDDNNMVVWGSDCWGNNGTYALVLQQDGLFVIYGPVLWPLGLNGCRSLN
notes: Expressed as an alpha-amylase fusion and cleaved at Lys-Arg by a KEX2-like protease; Glycosylation in the koji mold is not described; also called 13 kDa band of recombinant neoculin
For B1, the binding result in data set [1] and in data set [2] was “binds” in each case.

B2: polypeptide NAS (neoculin acidic subunit), purified from the fruit of Curculigo latifolia (other)
chain: DSVLLSGQTLYAGHSLTSGSYTLTIQNNCNLVKYQHGRQIWASDTDGQGSQCRLTLRSDGNLIIYDDNNMVVWGSDCWGNNGTYALVLQQDGLFVIYGPVLWPLGLNGCRSLN
modifications: N-linked sugar chain, mannose/N-acetylglucosamine/fucose/xylose at a ratio of about 3/2/1/1; binding site 'may possibly be asparagine-81' of SEQ ID NO.2
notes: Subunit of native neoculin; It separates from NBS only under reducing conditions in SDS-PAGE; also called 13 kDa subunit
Take B2: the binding result in data set [3] was “binds”.
